Results published in article PMC10786891, “Massively parallel profiling of RNA-targeting CRISPR-Cas13d”.

T1: EsCas13d, nuclease-dead (Eubacterium siraeum, UniProt B0MS50, R295A;H300A;R849A;H854A)
T1 sequence: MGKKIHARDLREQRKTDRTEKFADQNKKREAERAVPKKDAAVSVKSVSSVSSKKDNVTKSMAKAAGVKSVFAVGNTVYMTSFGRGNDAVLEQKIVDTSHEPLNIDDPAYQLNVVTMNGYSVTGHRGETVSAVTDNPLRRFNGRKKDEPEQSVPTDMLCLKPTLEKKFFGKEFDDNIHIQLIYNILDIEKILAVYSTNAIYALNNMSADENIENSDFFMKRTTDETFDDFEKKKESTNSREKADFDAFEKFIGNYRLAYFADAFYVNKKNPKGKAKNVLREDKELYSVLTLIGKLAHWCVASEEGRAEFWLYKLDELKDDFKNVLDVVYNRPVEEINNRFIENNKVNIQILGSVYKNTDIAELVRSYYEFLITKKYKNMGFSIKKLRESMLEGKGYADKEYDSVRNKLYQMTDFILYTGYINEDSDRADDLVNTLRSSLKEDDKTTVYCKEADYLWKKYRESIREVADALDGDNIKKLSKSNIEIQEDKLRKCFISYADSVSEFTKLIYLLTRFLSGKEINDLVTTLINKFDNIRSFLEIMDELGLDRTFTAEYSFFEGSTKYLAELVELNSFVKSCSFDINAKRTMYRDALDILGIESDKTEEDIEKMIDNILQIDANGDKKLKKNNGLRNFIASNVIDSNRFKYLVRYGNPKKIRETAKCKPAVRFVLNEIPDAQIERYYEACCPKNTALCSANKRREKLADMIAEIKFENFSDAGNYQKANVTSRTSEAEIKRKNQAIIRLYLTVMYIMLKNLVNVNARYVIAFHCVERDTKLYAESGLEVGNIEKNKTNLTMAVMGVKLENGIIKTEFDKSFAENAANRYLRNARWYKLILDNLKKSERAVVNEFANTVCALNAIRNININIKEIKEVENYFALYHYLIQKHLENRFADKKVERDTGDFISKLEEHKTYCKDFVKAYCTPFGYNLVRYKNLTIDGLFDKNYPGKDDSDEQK


Target: T1, EsCas13d, nuclease-dead
Experiment: crRNA (strand 1, pre-loaded); Mg2+; 40 mM Tris-HCl pH 7.5, 150 mM NaCl, 6 mM MgCl2, 1 mM DTT, 0.1% Tween-20, 0.2 mg/ml BSA; 25 C; 10 min per concentration, then washed
Settings: tags: His6-TwinStrep-SUMO cleaved; N-terminal SNAP kept (SNAP-Surface 488); label: 3' end held by stalled T7 RNA polymerase

Binder	Kd [nM]
target 1 insC 3' of 9,insA 3' of 4 (mixed) RNA 1: CACCCGUGCAAAAAUGCAGGGGUCUAAAACUGAGCGGAUAACCUCUCUAUGG RNA 2: GGGAAUGGAUCCACAUCUACGAAUUCGUACCAUAGAGAGGUUACUCCGCAUCACCGAGAUCGGAAGAGCACACGU	9.5 ± 1
target 1 A1U,C6A (mixed) RNA 1: CACCCGUGCAAAAAUGCAGGGGUCUAAAACUGAGCGGAUAACCUCUCUAUGG RNA 2: GGGAAUGGAUCCACAUCUACGAAUUCGUACCAUAGAGAGGUUAUCAGCUCUCCGAGAUCGGAAGAGCACACGU	7.5 ± 0.4
target 1 C7A,A9G (mixed) RNA 1: CACCCGUGCAAAAAUGCAGGGGUCUAAAACUGAGCGGAUAACCUCUCUAUGG RNA 2: GGGAAUGGAUCCACAUCUACGAAUUCGUACCAUAGAGAGGUUGUACGCUCACCGAGAUCGGAAGAGCACACGU	11.5 ± 0.5
target 1 U10G,A14C (mixed) RNA 1: CACCCGUGCAAAAAUGCAGGGGUCUAAAACUGAGCGGAUAACCUCUCUAUGG RNA 2: GGGAAUGGAUCCACAUCUACGAAUUCGUACCAUAGAGCGGUGAUCCGCUCACCGAGAUCGGAAGAGCACACGU	94 ± 23
target 1 complement block 6-9 (mixed) RNA 1: CACCCGUGCAAAAAUGCAGGGGUCUAAAACUGAGCGGAUAACCUCUCUAUGG RNA 2: GGGAAUGGAUCCACAUCUACGAAUUCGUACCAUAGAGAGGUUUAGGGCUCACCGAGAUCGGAAGAGCACACGU	7.7 ± 0.5
target 1 insU 3' of 9,insU 3' of 6 (mixed) RNA 1: CACCCGUGCAAAAAUGCAGGGGUCUAAAACUGAGCGGAUAACCUCUCUAUGG RNA 2: GGGAAUGGAUCCACAUCUACGAAUUCGUACCAUAGAGAGGUUAUUCCUGCUCACCGAGAUCGGAAGAGCACACGU	46 ± 6
target 1 G12C,C22U (mixed) RNA 1: CACCCGUGCAAAAAUGCAGGGGUCUAAAACUGAGCGGAUAACCUCUCUAUGG RNA 2: GGGAAUGGAUCCACAUCUACGAAUUCGUAUCAUAGAGAGCUUAUCCGCUCACCGAGAUCGGAAGAGCACACGU	23.5 ± 1.5
target 1 insC 3' of 10,insA 3' of 5 (mixed) RNA 1: CACCCGUGCAAAAAUGCAGGGGUCUAAAACUGAGCGGAUAACCUCUCUAUGG RNA 2: GGGAAUGGAUCCACAUCUACGAAUUCGUACCAUAGAGAGGUUCAUCCGACUCACCGAGAUCGGAAGAGCACACGU	10.4 ± 1.1
target 1 insA 3' of 3,insG 3' of 2 (mixed) RNA 1: CACCCGUGCAAAAAUGCAGGGGUCUAAAACUGAGCGGAUAACCUCUCUAUGG RNA 2: GGGAAUGGAUCCACAUCUACGAAUUCGUACCAUAGAGAGGUUAUCCGCUACGACCGAGAUCGGAAGAGCACACGU	7.05 ± 0.31
target 1 insG 3' of 19,insA 3' of 15 (mixed) RNA 1: CACCCGUGCAAAAAUGCAGGGGUCUAAAACUGAGCGGAUAACCUCUCUAUGG RNA 2: GGGAAUGGAUCCACAUCUACGAAUUCGUACCAUGAGAGAAGGUUAUCCGCUCACCGAGAUCGGAAGAGCACACGU	56 ± 7
target 1 insU 3' of 7,insG 3' of 1 (mixed) RNA 1: CACCCGUGCAAAAAUGCAGGGGUCUAAAACUGAGCGGAUAACCUCUCUAUGG RNA 2: GGGAAUGGAUCCACAUCUACGAAUUCGUACCAUAGAGAGGUUAUCUCGCUCAGCCGAGAUCGGAAGAGCACACGU	13.8 ± 0.6
target 1 insU 3' of 9,insA 3' of 6 (mixed) RNA 1: CACCCGUGCAAAAAUGCAGGGGUCUAAAACUGAGCGGAUAACCUCUCUAUGG RNA 2: GGGAAUGGAUCCACAUCUACGAAUUCGUACCAUAGAGAGGUUAUUCCAGCUCACCGAGAUCGGAAGAGCACACGU	23.5 ± 2.7
target 1 insA 3' of 19,insU 3' of 12 (mixed) RNA 1: CACCCGUGCAAAAAUGCAGGGGUCUAAAACUGAGCGGAUAACCUCUCUAUGG RNA 2: GGGAAUGGAUCCACAUCUACGAAUUCGUACCAUAAGAGAGGUUUAUCCGCUCACCGAGAUCGGAAGAGCACACGU	17.9 ± 1.2
target 1 C6A (mixed) RNA 1: CACCCGUGCAAAAAUGCAGGGGUCUAAAACUGAGCGGAUAACCUCUCUAUGG RNA 2: GGGAAUGGAUCCACAUCUACGAAUUCGUACCAUAGAGAGGUUAUCAGCUCACCGAGAUCGGAAGAGCACACGU	6.17 ± 0.3
target 1 C7G,U11A (mixed) RNA 1: CACCCGUGCAAAAAUGCAGGGGUCUAAAACUGAGCGGAUAACCUCUCUAUGG RNA 2: GGGAAUGGAUCCACAUCUACGAAUUCGUACCAUAGAGAGGAUAUGCGCUCACCGAGAUCGGAAGAGCACACGU	25 ± 4
target 1 U8A,G12U (mixed) RNA 1: CACCCGUGCAAAAAUGCAGGGGUCUAAAACUGAGCGGAUAACCUCUCUAUGG RNA 2: GGGAAUGGAUCCACAUCUACGAAUUCGUACCAUAGAGAGUUUAACCGCUCACCGAGAUCGGAAGAGCACACGU	13.1 ± 0.8
target 1 C2G,U11C (mixed) RNA 1: CACCCGUGCAAAAAUGCAGGGGUCUAAAACUGAGCGGAUAACCUCUCUAUGG RNA 2: GGGAAUGGAUCCACAUCUACGAAUUCGUACCAUAGAGAGGCUAUCCGCUGACCGAGAUCGGAAGAGCACACGU	7.4 ± 0.4
target 1 G17U,U19C (mixed) RNA 1: CACCCGUGCAAAAAUGCAGGGGUCUAAAACUGAGCGGAUAACCUCUCUAUGG RNA 2: GGGAAUGGAUCCACAUCUACGAAUUCGUACCACAUAGAGGUUAUCCGCUCACCGAGAUCGGAAGAGCACACGU	14.4 ± 0.8
target 1 G12U,A18G (mixed) RNA 1: CACCCGUGCAAAAAUGCAGGGGUCUAAAACUGAGCGGAUAACCUCUCUAUGG RNA 2: GGGAAUGGAUCCACAUCUACGAAUUCGUACCAUGGAGAGUUUAUCCGCUCACCGAGAUCGGAAGAGCACACGU	78 ± 16
target 1 insA 3' of 21,insA 3' of 11 (mixed) RNA 1: CACCCGUGCAAAAAUGCAGGGGUCUAAAACUGAGCGGAUAACCUCUCUAUGG RNA 2: GGGAAUGGAUCCACAUCUACGAAUUCGUACCAAUAGAGAGGUAUAUCCGCUCACCGAGAUCGGAAGAGCACACGU	36.6 ± 2.9
target 1 insC 3' of 19,insA 3' of 19 (mixed) RNA 1: CACCCGUGCAAAAAUGCAGGGGUCUAAAACUGAGCGGAUAACCUCUCUAUGG RNA 2: GGGAAUGGAUCCACAUCUACGAAUUCGUACCAUCAAGAGAGGUUAUCCGCUCACCGAGAUCGGAAGAGCACACGU	31.3 ± 2.9
target 1 insU 3' of 20,insA 3' of 6 (mixed) RNA 1: CACCCGUGCAAAAAUGCAGGGGUCUAAAACUGAGCGGAUAACCUCUCUAUGG RNA 2: GGGAAUGGAUCCACAUCUACGAAUUCGUACCAUUAGAGAGGUUAUCCAGCUCACCGAGAUCGGAAGAGCACACGU	15.9 ± 1.1
target 1 insC 3' of 17,insU 3' of 5 (mixed) RNA 1: CACCCGUGCAAAAAUGCAGGGGUCUAAAACUGAGCGGAUAACCUCUCUAUGG RNA 2: GGGAAUGGAUCCACAUCUACGAAUUCGUACCAUAGCAGAGGUUAUCCGUCUCACCGAGAUCGGAAGAGCACACGU	35.2 ± 3.2
target 1 C2A,C22A (mixed) RNA 1: CACCCGUGCAAAAAUGCAGGGGUCUAAAACUGAGCGGAUAACCUCUCUAUGG RNA 2: GGGAAUGGAUCCACAUCUACGAAUUCGUAACAUAGAGAGGUUAUCCGCUAACCGAGAUCGGAAGAGCACACGU	17.8 ± 3.3
target 1 insU 3' of 18,insU 3' of 1 (mixed) RNA 1: CACCCGUGCAAAAAUGCAGGGGUCUAAAACUGAGCGGAUAACCUCUCUAUGG RNA 2: GGGAAUGGAUCCACAUCUACGAAUUCGUACCAUAUGAGAGGUUAUCCGCUCAUCCGAGAUCGGAAGAGCACACGU	33 ± 1.8
target 1 complement block 9-12 (mixed) RNA 1: CACCCGUGCAAAAAUGCAGGGGUCUAAAACUGAGCGGAUAACCUCUCUAUGG RNA 2: GGGAAUGGAUCCACAUCUACGAAUUCGUACCAUAGAGAGCAAUUCCGCUCACCGAGAUCGGAAGAGCACACGU	19.9 ± 2.7
target 1 del13 (mixed) RNA 1: CACCCGUGCAAAAAUGCAGGGGUCUAAAACUGAGCGGAUAACCUCUCUAUGG RNA 2: GGGAAUGGAUCCACAUCUACGAAUUCGUACCAUAGAGAGUUAUCCGCUCACCGAGAUCGGAAGAGCACACGU	8.6 ± 0.6
target 1 U8G,A9G (mixed) RNA 1: CACCCGUGCAAAAAUGCAGGGGUCUAAAACUGAGCGGAUAACCUCUCUAUGG RNA 2: GGGAAUGGAUCCACAUCUACGAAUUCGUACCAUAGAGAGGUUGGCCGCUCACCGAGAUCGGAAGAGCACACGU	19.1 ± 1.3
